# Measured values reported in patent US20240270821A1, “GIP/GLP1/GCG TRI-RECEPTOR AGONISTS AND USES THEREOF” (priority 2023, published 2024).
# Changes are numbered by the printed parent chain.
# T1: human GIP receptor (human) (UniProt P48546)
# T1 sequence (looked up): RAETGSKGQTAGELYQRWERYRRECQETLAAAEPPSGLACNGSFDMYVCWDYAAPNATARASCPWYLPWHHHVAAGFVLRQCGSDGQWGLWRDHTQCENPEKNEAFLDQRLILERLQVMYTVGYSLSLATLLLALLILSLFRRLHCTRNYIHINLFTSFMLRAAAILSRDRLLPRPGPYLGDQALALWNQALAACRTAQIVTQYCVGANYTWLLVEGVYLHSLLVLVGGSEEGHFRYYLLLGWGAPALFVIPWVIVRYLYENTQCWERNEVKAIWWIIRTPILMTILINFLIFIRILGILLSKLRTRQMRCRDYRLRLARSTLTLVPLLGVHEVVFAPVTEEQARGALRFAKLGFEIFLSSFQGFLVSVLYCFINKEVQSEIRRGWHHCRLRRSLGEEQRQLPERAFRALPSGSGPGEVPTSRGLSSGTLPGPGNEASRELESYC
# B1: Example 450 (peptide)
# chain: YXQGTXTSDXXIXLDXKAQXNFIEXLQEGGPSSGEPPPE
# modifications: synthetic construct; SITE 2: note = 2-Aminoisobutyric Acid; SITE 6: note = alpha-methyl-2-fluoro-L-phenylalanine; SITE 10: note = 3-(4-Pyridyl)-L-alanine; SITE 11: note = alpha-methyl-L-serine; SITE 13: note = alpha-methyl-leucine; SITE 16: note = L-ornithine; SITE 17: note = Lysine is chemically mo
# B2: Example 453 (peptide)
# chain: B1 chain with N21X, Q27I
# modifications: synthetic construct; SITE 2: note = 2-Aminoisobutyric Acid; SITE 6: note = alpha-methyl-2-fluoro-L-phenylalanine; SITE 10: note = 3-(4-Pyridyl)-L-alanine; SITE 11: note = alpha-methyl-L-serine; SITE 13: note = alpha-methyl-leucine; SITE 16: note = L-ornithine; SITE 17: note = Lysine is chemically mo
# B3: Example 457 (peptide)
# chain: B1 chain with N21T, Q27I
# modifications: synthetic construct; SITE 2: note = 2-Aminoisobutyric Acid; SITE 6: note = alpha-methyl-2-fluoro-L-phenylalanine; SITE 10: note = 3-(4-Pyridyl)-L-alanine; SITE 11: note = alpha-methyl-L-serine; SITE 13: note = alpha-methyl-leucine; SITE 16: note = L-ornithine; SITE 17: note = Lysine is chemically mo
# B4: Example 460 (peptide)
# chain: B1 chain with N21X, X25Y, Q27L
# modifications: synthetic construct; SITE 2: note = 2-Aminoisobutyric Acid; SITE 6: note = alpha-methyl-2-fluoro-L-phenylalanine; SITE 10: note = 3-(4-Pyridyl)-L-alanine; SITE 11: note = alpha-methyl-L-serine; SITE 13: note = alpha-methyl-leucine; SITE 16: note = L-ornithine; SITE 17: note = Lysine is chemically mo
# B5: Example 462 (peptide)
# chain: YXQGTXTSDXXIXLDXKAQXXFIEXLIEGGPSSGEPPPEEG
# modifications: synthetic construct; SITE 2: note = 2-Aminoisobutyric Acid; SITE 6: note = alpha-methyl-2-fluoro-L-phenylalanine; SITE 10: note = 3-(4-Pyridyl)-L-alanine; SITE 11: note = alpha-methyl-L-serine; SITE 13: note = alpha-methyl-leucine; SITE 16: note = L-ornithine; SITE 17: note = Lysine is chemically mo
# B6: Example 464 (peptide)
# chain: YXQGTXTSDXXILLDKKAQXAFIEYLEEGGPSSGAPPPE
# modifications: synthetic construct; SITE 2: note = 2-Aminoisobutyric Acid; SITE 6: note = alpha-methyl-2-fluoro-L-phenylalanine; SITE 10: note = 3-(4-Pyridyl)-L-alanine; SITE 11: note = alpha-methyl-L-serine; SITE 17: note = Lysine is chemically modified through conjugation of the epsilon-amino group of the Lysine
# B7: Example 465 (peptide)
# chain: B6 chain
# modifications: synthetic construct; SITE 2: note = 2-Aminoisobutyric Acid; SITE 6: note = alpha-methyl-2-fluoro-L-phenylalanine; SITE 10: note = 3-(3-Pyridyl)-L-alanine; SITE 11: note = alpha-methyl-L-serine; SITE 17: note = Lysine is chemically modified through conjugation of the epsilon-amino group of the Lysine
# B8: Example 466 (peptide)
# chain: B1 chain with Y1H, N21A, X25Y, Q27L
# modifications: synthetic construct; SITE 2: note = 2-Aminoisobutyric Acid; SITE 6: note = alpha-methyl-2-fluoro-L-phenylalanine; SITE 10: note = 3-(4-Pyridyl)-L-alanine; SITE 11: note = alpha-methyl-L-serine; SITE 13: note = alpha-methyl-leucine; SITE 16: note = L-ornithine; SITE 17: note = Lysine is chemically mo
# B9: Example 467 (peptide)
# chain: B6 chain with X10Y, I12E
# modifications: synthetic construct; SITE 2: note = 2-Aminoisobutyric Acid; SITE 6: note = alpha-methyl-2-fluoro-L-phenylalanine; SITE 11: note = alpha-methyl-L-serine; SITE 17: note = Lysine is chemically modified through conjugation of the epsilon-amino group of the Lysine side chain with (2-[2-(2-Amino-ethoxy)-e)
# B10: Example 468 (peptide)
# chain: B6 chain with X10Y
# modifications: synthetic construct; SITE 2: note = 2-Aminoisobutyric Acid; SITE 6: note = alpha-methyl-2-fluoro-L-phenylalanine; SITE 11: note = alpha-methyl-L-serine; SITE 17: note = Lysine is chemically modified through conjugation of the epsilon-amino group of the Lysine side chain with (2-[2-(2-Amino-ethoxy)-e)
# B11: Example 469 (peptide)
# chain: B6 chain with X10Y, A35E
# modifications: synthetic construct; SITE 2: note = 2-Aminoisobutyric Acid; SITE 6: note = alpha-methyl-2-fluoro-L-phenylalanine; SITE 11: note = alpha-methyl-L-serine; SITE 17: note = Lysine is chemically modified through conjugation of the epsilon-amino group of the Lysine side chain with (2-[2-(2-Amino-ethoxy)-e)
# B12: Example 471 (peptide)
# chain: YXQGTXTSDYSILLDKKAQXAFIEYLEEGGPSSGAPPPEEG
# modifications: synthetic construct; SITE 2: note = 2-Aminoisobutyric Acid; SITE 6: note = alpha-methyl-2-fluoro-L-phenylalanine; SITE 17: note = Lysine is chemically modified through conjugation of the epsilon-amino group of the Lysine side chain with (gamma-Glu)2-CO-(CH2)16-CO2H; SITE 20: note = 2-Aminoisobutyric
# Molecular target: hGLP-1R (Homo sapiens, UniProt P43220)
# Sequence (P43220 24-463): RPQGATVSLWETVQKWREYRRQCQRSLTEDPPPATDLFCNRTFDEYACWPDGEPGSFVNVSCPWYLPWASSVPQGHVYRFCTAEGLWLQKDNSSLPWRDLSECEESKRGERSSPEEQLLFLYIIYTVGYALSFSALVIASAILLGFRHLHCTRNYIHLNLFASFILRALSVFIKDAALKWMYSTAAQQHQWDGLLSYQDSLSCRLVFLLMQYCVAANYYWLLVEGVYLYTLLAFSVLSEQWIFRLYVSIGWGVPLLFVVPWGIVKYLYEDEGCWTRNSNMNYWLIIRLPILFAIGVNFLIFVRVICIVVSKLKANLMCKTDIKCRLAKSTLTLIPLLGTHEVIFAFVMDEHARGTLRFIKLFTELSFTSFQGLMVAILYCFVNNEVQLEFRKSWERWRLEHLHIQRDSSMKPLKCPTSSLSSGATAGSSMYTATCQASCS
# Assay: cell-based or functional assay
Binder,"Relative cAMP EC50, nM (0.1% casein)","cAMP Rel EC50 (receptor-expressing HEK-293 cells, 1% HSA)"
B1,0.43 nM,18.4 nM
B2,0.374 nM,20.6 nM
B3,0.226 nM,11.7 nM
B4,0.636 nM,31.1 nM
B5,0.204 nM,12.9 nM
B6,0.466 nM,45.5 nM
B7,0.575 nM,56.3 nM
B8,0.207 nM,13.3 nM
B9,0.358 nM,36.4 nM
B10,0.466 nM,30.7 nM
B11,0.562 nM,61.7 nM
B12,0.317 nM,37.9 nM

# Molecular target: T1, human GIP receptor (human)
# Assay: cell-based or functional assay
Binder,"Relative cAMP EC50, nM (0.1% casein)","cAMP Rel EC50 (receptor-expressing HEK-293 cells, 1% HSA)"
B1,0.0448 nM,3.75 nM
B2,0.0184 nM,1.95 nM
B3,0.00918 nM,0.881 nM
B4,0.0624 nM,8.93 nM
B5,0.0148 nM,1.62 nM
B6,0.072 nM,19.9 nM
B7,0.148 nM,44.6 nM
B8,0.0466 nM,5.65 nM
B9,0.0855 nM,10.7 nM
B10,0.0222 nM,4.76 nM
B11,0.031 nM,4.24 nM
B12,0.0296 nM,5.45 nM

# Molecular target: human glucagon receptor (human) (UniProt P47871)
# Sequence (P47871 26-477): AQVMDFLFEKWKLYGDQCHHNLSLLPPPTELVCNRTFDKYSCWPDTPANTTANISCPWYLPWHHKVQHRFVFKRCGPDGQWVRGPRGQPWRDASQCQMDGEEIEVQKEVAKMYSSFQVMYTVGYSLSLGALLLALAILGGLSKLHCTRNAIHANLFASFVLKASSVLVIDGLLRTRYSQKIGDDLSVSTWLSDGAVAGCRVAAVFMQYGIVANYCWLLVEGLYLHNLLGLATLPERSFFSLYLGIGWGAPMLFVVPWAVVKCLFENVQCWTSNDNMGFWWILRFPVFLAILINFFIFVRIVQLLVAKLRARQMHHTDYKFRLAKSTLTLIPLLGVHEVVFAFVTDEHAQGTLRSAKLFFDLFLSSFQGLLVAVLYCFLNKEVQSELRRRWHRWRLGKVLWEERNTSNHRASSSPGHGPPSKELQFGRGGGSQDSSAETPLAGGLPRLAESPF
# Assay: cell-based or functional assay
Binder,"Relative cAMP EC50, nM (0.1% casein)","cAMP Rel EC50 (receptor-expressing HEK-293 cells, 1% HSA)"
B1,4.84 nM,553 nM
B2,7.37 nM,261 nM
B3,2.86 nM,333 nM
B4,1.89 nM,142 nM
B5,1.69 nM,183 nM
B6,1.25 nM,194 nM
B7,1.5 nM,233 nM
B8,5.84 nM,348 nM
B9,9.34 nM,850 nM
B10,1.95 nM,195 nM
B11,1.34 nM,155 nM
B12,2.19 nM,181 nM
